Results taken from the supplement of paper PMC9876800.

Test system: peptide library, one residue held at a place counted from the S/T acceptor
Test: relative phosphorylation of the sub-library (ratio to the mean residue at this position); human; higher = residue favoured
Outline: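 Relative sub-library phosphorylation, a ratio to the mean residue at that position, was obtained by phosphorimaging and densitometry of spots on streptavidin membranes. Before capture, purified recombinant kinases were incubated for 90 min under kinase-specific conditions with 50 μM biotinylated degenerate peptide sub-libraries and 50 μM ATP spiked with γ-32P-ATP. Each sub-library fixed one residue at one position around a central Ser/Thr.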

Chain of CSNK2A1, construct: Full length (P68400 whole entry, looked up): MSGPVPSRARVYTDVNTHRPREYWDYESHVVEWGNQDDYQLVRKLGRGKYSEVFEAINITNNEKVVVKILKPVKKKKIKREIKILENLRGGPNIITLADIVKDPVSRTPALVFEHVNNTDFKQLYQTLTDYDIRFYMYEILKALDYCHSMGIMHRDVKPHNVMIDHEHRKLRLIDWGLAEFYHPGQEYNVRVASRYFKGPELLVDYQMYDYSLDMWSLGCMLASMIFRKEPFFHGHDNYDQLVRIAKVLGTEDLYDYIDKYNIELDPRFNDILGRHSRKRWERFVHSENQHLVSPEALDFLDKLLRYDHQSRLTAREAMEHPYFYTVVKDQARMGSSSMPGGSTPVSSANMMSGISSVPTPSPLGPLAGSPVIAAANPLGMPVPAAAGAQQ
Chain of CSNK1A1L, construct: Full length (Q8N752 whole entry, looked up): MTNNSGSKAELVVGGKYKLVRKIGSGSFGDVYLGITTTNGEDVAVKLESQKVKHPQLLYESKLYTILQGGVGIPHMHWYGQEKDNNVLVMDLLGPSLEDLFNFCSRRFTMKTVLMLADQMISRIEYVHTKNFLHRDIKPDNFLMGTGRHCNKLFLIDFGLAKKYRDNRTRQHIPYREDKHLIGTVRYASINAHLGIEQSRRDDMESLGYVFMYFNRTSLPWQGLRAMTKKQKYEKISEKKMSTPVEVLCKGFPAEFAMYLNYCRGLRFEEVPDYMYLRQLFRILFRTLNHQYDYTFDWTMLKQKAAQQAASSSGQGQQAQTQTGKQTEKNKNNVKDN

CSNK2A1, construct: Full length (from UniProt P68400)
relative phosphorylation
Conditions	at +1	at +2	at +3	at +4	at -1	at -2	at -3	at -4	at -5
A fixed	0.479	1.2	0.406	0.847	0.867	1.02	0.979	1.01	1.09
D fixed	9.09	3.13	2.81	2.06	3.14	1.45	1.78	1.79	1.46
E fixed	3.33	2.03	9.11	2.6	2.33	1.37	1.53	1.56	1.2
F fixed	0.24	0.739	0.307	0.878	0.886	1.04	0.97	0.88	0.976
G fixed	0.561	0.782	0.533	1.06	0.687	0.891	1.65	1.03	0.98
H fixed	0.333	0.993	0.347	0.75	0.829	0.968	0.907	0.895	1.08
I fixed	0.208	0.654	0.249	0.811	0.61	0.94	0.759	0.839	0.883
K fixed	0.23	0.374	0.236	0.53	0.48	0.458	0.566	0.76	0.963
L fixed	0.237	0.499	0.246	0.64	0.926	0.693	0.702	0.892	0.726
M fixed	0.259	0.524	0.257	0.916	0.934	0.705	0.823	0.941	0.911
N fixed	0.5	1.42	0.455	0.904	0.796	0.813	1.05	1.04	1.05
P fixed	0.232	0.543	0.412	0.597	0.541	0.778	0.853	0.807	0.751
Q fixed	0.352	0.68	0.4	0.832	0.922	0.678	0.869	0.867	0.808
R fixed	0.221	0.426	0.258	0.553	0.435	0.589	0.657	0.87	0.943
V fixed	0.249	0.923	0.263	0.76	0.751	0.859	0.801	0.826	0.969
W fixed	0.236	1.16	0.328	1.32	0.914	1.12	0.897	0.927	1.15
Y fixed	0.238	0.923	0.385	0.933	0.954	2.62	1.21	1.08	1.06
pThr fixed	5.46	1.84	1.96	6.46	1.96	1.59	2.22	1.83	1.39
pTyr fixed	0.808	2.14	4.29	3.87	3.49	2.41	2.37	1.4	1.47

CSNK1A1L, construct: Full length (from UniProt Q8N752)
relative phosphorylation
Conditions	at +1	at +2	at +3	at +4	at -1	at -2	at -3	at -4	at -5
A fixed	0.971	1.06	1.06	1.04	1.09	1.69	0.946	0.941	0.921
D fixed	0.691	0.714	0.868	0.854	0.749	0.716	1.06	0.888	0.771
E fixed	0.871	0.578	0.9	0.871	0.977	0.991	2.26	1.1	0.78
F fixed	0.886	1.12	1.17	1.05	0.872	0.81	0.784	0.965	1.27
G fixed	0.849	0.885	1.07	0.992	1.21	0.819	0.778	0.948	0.897
H fixed	0.744	0.98	0.899	0.858	0.896	0.748	0.734	0.933	0.985
I fixed	1.87	1.66	1.19	1.03	0.879	0.847	0.965	1.13	1.1
K fixed	0.883	1.02	0.845	1.09	1.2	1.35	1.13	1.24	1.27
L fixed	1.19	0.964	1.07	1.11	1.01	0.903	0.811	1.08	1.09
M fixed	1.03	1.02	1.17	1.08	1.13	0.839	0.751	0.96	1.09
N fixed	0.745	0.702	0.795	0.777	0.997	0.798	0.704	0.96	0.874
P fixed	0.719	0.705	0.904	1.1	1.02	1.19	0.741	0.873	0.874
Q fixed	0.801	0.731	0.808	0.913	0.878	0.889	0.685	0.865	0.807
R fixed	1.25	1.03	0.801	0.897	1.54	2.1	2.08	1.15	1.18
V fixed	1.88	1.38	1.14	1.02	0.854	0.889	0.813	0.956	0.925
W fixed	0.769	1.06	1.16	1.24	0.754	0.681	0.656	0.946	0.928
Y fixed	0.854	1.4	1.15	1.07	0.94	0.737	1.09	1.08	1.25
pThr fixed	1.69	0.803	1.25	1.64	2.06	3.58	53.8	5.13	1.56
pTyr fixed	1.26	2.63	3.97	2.06	1.5	1.78	2.99	4.32	1.93

MKNK1, construct: Full length (D165-205) (from UniProt Q9BUB5)
relative phosphorylation
Conditions	at +1	at +2	at +3	at +4	at -1	at -2	at -3	at -4	at -5
A fixed	0.571	0.643	0.663	0.758	0.958	0.862	0.744	0.882	1.25
D fixed	0.289	0.373	0.434	0.925	0.355	0.324	0.281	0.361	0.43
E fixed	0.603	0.351	0.429	0.903	0.342	0.279	0.315	0.37	0.404
F fixed	1.41	0.677	0.771	0.706	0.395	0.433	0.392	0.676	0.727
G fixed	0.464	0.534	1.49	0.967	1.12	0.736	1.22	1.3	0.945
H fixed	0.892	1.83	1.23	1.13	0.897	0.748	1.04	1.12	0.866
I fixed	1.05	0.875	0.597	0.687	0.304	0.372	0.286	0.625	1
K fixed	1.04	1.03	2.18	1.82	3.23	2.45	3.62	2.16	1.58
L fixed	0.991	0.907	1.01	0.722	0.602	0.519	0.394	0.751	1.2
M fixed	1.86	0.997	0.886	0.805	0.619	0.395	0.494	0.784	0.97
N fixed	0.651	0.817	0.725	1.12	0.905	1.03	0.96	1.07	0.872
P fixed	0.345	0.387	0.806	1.3	1.87	0.55	1.4	1.28	1.25
Q fixed	1.8	0.794	0.856	1.29	0.991	0.747	0.926	0.83	0.762
R fixed	1.34	1.9	1.95	1.49	2.91	5.62	3.5	2.25	1.66
V fixed	0.995	0.781	0.506	0.704	0.429	0.521	0.318	0.76	1.25
W fixed	1.2	1.79	1.17	0.826	0.414	0.685	0.549	0.894	0.832
Y fixed	1.49	2.32	1.3	0.845	0.655	0.725	0.557	0.891	1.01
pThr fixed	0.668	0.629	0.564	1.11	0.278	0.387	0.511	0.639	0.677
pTyr fixed	0.868	1.32	0.756	1.46	0.294	0.373	0.447	0.596	0.942
